For orientation: stoichiometry N means a count of units in the complex or per binding partner.

What all share (assay): crystal structure; purified OmpC in detergent (0.6% HESO + 0.1% OPOE, or 1% βOG), crystals grown at 20°C or room temperature; trimer in the crystal
The target of data set [1] is OmpC20 (E. coli (clinical isolate)) (UniProt P06996).
The target of data set [2] is OmpC26 (E. coli (clinical isolate)) (UniProt P06996).
Data set [3] deals with the molecule itself.

Turning to “OmpC20 (from UniProt P06996 22-367) (natural protein)”, in data set [1], the stoichiometry N worked out at 3. On to “OmpC26 (from UniProt P06996 22-367) (natural protein)”, for which the stoichiometry N in data set [2] turned out to be 3.

B1: OmpCO6 (natural protein)
chain: AEVYNKDGNKLDLYGKVDGLHYFSDDKSVDGDQTYMRLGFKGETQVTDQLTGYGQWEYQIQGNAPESENNSWTRVAFAGLKFQDIGSFDYGRNYGVVYDVTSWTDVLPEFGGDTYGSDNFMQQRGNGFATYRNTDFFGLVDGLNFAVQYQGQNGSVSGENDPDFTGHGITNNGRKALRQNGDGVGGSITYDYEGFGVGAAVSSSKRTWDQNNTGLIGTGDRAETYTGGLKYDANNIYLAAQYTQTYNATRVGSLGWANKAQNFEAVAQYQFDFGLRPSVAYLQSKGKNLGVVAGRNYDDEDILKYVDVGATYYFNKNMSTYVDYKINLLDDNQFTRAAGINTDDIVALGLVYQF
notes: gene amplified by PCR and expressed from pHSG575; Trimer in the crystal; also called OmpC from uropathogenic E. coli O6:H1; source: E. coli strain lacking porins, plasmid pHSG575; purified (detergent extraction, POROS-HQ anion exchange, Superdex 200 gel filtration)
On to B1, for which the “stoichiometry N” value in data set [3] came to 3.

(Values after paper PMC3203869, “Altered Antibiotic Transport in OmpC Mutants Isolated from a Series of Clinical Strains of Multi-Drug Resistant E. coli” (PLoS ONE, 2011).)
